# Source: article PMC10786891, “Massively parallel profiling of RNA-targeting CRISPR-Cas13d”
# Substitutions are numbered along the chain they refer to. Names may count otherwise.
# T1: EsCas13d, nuclease-dead (Eubacterium siraeum, UniProt B0MS50, R295A;H300A;R849A;H854A)
# T1 sequence: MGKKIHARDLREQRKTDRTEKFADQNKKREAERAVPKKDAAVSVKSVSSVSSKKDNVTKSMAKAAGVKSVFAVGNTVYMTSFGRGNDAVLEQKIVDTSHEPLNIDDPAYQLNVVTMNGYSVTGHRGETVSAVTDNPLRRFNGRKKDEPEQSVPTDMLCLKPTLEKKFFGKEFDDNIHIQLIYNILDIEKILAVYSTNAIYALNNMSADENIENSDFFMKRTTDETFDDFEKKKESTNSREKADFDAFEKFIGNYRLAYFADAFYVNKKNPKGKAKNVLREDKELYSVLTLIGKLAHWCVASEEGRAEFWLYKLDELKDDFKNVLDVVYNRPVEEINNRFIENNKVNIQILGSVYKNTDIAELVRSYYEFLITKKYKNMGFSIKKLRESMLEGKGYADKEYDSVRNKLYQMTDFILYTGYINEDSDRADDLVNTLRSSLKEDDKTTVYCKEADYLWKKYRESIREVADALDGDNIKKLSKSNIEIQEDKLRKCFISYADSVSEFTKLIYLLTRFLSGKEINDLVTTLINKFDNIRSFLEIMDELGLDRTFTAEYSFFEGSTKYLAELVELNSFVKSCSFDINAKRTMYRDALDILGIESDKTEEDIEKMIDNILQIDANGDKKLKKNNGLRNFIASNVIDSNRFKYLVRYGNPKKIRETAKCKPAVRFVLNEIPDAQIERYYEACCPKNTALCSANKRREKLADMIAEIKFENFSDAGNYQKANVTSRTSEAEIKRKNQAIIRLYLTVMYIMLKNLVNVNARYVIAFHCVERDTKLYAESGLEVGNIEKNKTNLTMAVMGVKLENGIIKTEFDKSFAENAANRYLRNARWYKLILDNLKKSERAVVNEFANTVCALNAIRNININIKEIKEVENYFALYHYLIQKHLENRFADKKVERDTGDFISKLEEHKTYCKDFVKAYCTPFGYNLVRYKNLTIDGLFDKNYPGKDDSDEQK
# B1: target 1 MT 5'PFS AAC 3'PFS CUA (mixed)
# RNA 1: CACCCGUGCAAAAAUGCAGGGGUCUAAAACUGAGCGGAUAACCUCUCUAUGG
# RNA 2: GGGAAUGGAUCCACAUCUACGAAUUCAACCCAUAGAGAGGUUAUCCGCUCACUAAGAUCGGAAGAGCACACGU
# B2: target 1 MT 5'PFS ACA 3'PFS UAG (mixed)
# RNA 1: B1 RNA 1
# RNA 2: B1 RNA 2 with A28C, C29A, C52U, U53A, A54G
# B3: target 1 MT 5'PFS GCC 3'PFS UCC (mixed)
# RNA 1: B1 RNA 1
# RNA 2: B1 RNA 2 with A27G, A28C, C52U, U53C, A54C
# B4: target 1 MT 5'PFS GGG 3'PFS AGG (mixed)
# RNA 1: B1 RNA 1
# RNA 2: B1 RNA 2 with A27G, A28G, C29G, C52A, U53G, A54G
# B5: target 1 MT 5'PFS UGC 3'PFS UAC (mixed)
# RNA 1: B1 RNA 1
# RNA 2: B1 RNA 2 with A27U, A28G, C52U, U53A, A54C
# B6: target 1 MT 5'PFS ACU 3'PFS CCG (mixed)
# RNA 1: B1 RNA 1
# RNA 2: B1 RNA 2 with A28C, C29U, U53C, A54G
# B7: target 1 insG 3' of 10,insU 3' of 4 (mixed)
# RNA 1: B1 RNA 1
# RNA 2: GGGAAUGGAUCCACAUCUACGAAUUCGUACCAUAGAGAGGUUGAUCCGCUUCACCGAGAUCGGAAGAGCACACGU
# B8: target 1 G12A,A20C (mixed)
# RNA 1: B1 RNA 1
# RNA 2: B1 RNA 2 with A27G, A28U, C29A, A32C, G40A, U53C, A54G
# B9: target 1 MT 5'PFS GGA 3'PFS UUU (mixed)
# RNA 1: B1 RNA 1
# RNA 2: B1 RNA 2 with A27G, A28G, C29A, C52U, A54U
# B10: target 1 MT 5'PFS ACG 3'PFS AGC (mixed)
# RNA 1: B1 RNA 1
# RNA 2: B1 RNA 2 with A28C, C29G, C52A, U53G, A54C
# B11: target 1 MT 5'PFS AUA 3'PFS UUG (mixed)
# RNA 1: B1 RNA 1
# RNA 2: B1 RNA 2 with A28U, C29A, C52U, A54G
# B12: target 1 MT 5'PFS CUU 3'PFS CGC (mixed)
# RNA 1: B1 RNA 1
# RNA 2: B1 RNA 2 with A27C, A28U, C29U, U53G, A54C
# B13: target 1 MT 5'PFS CAC 3'PFS AAG (mixed)
# RNA 1: B1 RNA 1
# RNA 2: B1 RNA 2 with A27C, C52A, U53A, A54G
# B14: target 1 MT 5'PFS UCC 3'PFS CAU (mixed)
# RNA 1: B1 RNA 1
# RNA 2: B1 RNA 2 with A27U, A28C, U53A, A54U
# B15: target 1 MT 5'PFS GGA 3'PFS UUA (mixed)
# RNA 1: B1 RNA 1
# RNA 2: B1 RNA 2 with A27G, A28G, C29A, C52U
# B16: target 1 MT 5'PFS GGG 3'PFS AGC (mixed)
# RNA 1: B1 RNA 1
# RNA 2: B1 RNA 2 with A27G, A28G, C29G, C52A, U53G, A54C
# B17: target 1 MT 5'PFS CUA 3'PFS CUC (mixed)
# RNA 1: B1 RNA 1
# RNA 2: B1 RNA 2 with A27C, A28U, C29A, A54C
# B18: target 1 MT 5'PFS GCC 3'PFS UCU (mixed)
# RNA 1: B1 RNA 1
# RNA 2: B1 RNA 2 with A27G, A28C, C52U, U53C, A54U
# B19: target 1 MT 5'PFS GGA 3'PFS UUG (mixed)
# RNA 1: B1 RNA 1
# RNA 2: B1 RNA 2 with A27G, A28G, C29A, C52U, A54G
# B20: target 1 MT 5'PFS ACA 3'PFS AAC (mixed)
# RNA 1: B1 RNA 1
# RNA 2: B1 RNA 2 with A28C, C29A, C52A, U53A, A54C
# B21: target 1 MT 5'PFS ACA 3'PFS AAA (mixed)
# RNA 1: B1 RNA 1
# RNA 2: B1 RNA 2 with A28C, C29A, C52A, U53A
# B22: target 1 MT 5'PFS AUU 3'PFS AAG (mixed)
# RNA 1: B1 RNA 1
# RNA 2: B1 RNA 2 with A28U, C29U, C52A, U53A, A54G
# B23: target 1 insU 3' of 6,insA 3' of 4 (mixed)
# RNA 1: B1 RNA 1
# RNA 2: B7 RNA 2 with G43A, A44U, U45C, C47U, U50A
# B24: target 1 MT 5'PFS UAG 3'PFS UGA (mixed)
# RNA 1: B1 RNA 1
# RNA 2: B1 RNA 2 with A27U, C29G, C52U, U53G
# B25: target 1 MT 5'PFS GCC 3'PFS UCG (mixed)
# RNA 1: B1 RNA 1
# RNA 2: B1 RNA 2 with A27G, A28C, C52U, U53C, A54G
# B26: target 1 MT 5'PFS CAC 3'PFS AAC (mixed)
# RNA 1: B1 RNA 1
# RNA 2: B1 RNA 2 with A27C, C52A, U53A, A54C
# B27: target 1 MT 5'PFS AGA 3'PFS AGU (mixed)
# RNA 1: B1 RNA 1
# RNA 2: B1 RNA 2 with A28G, C29A, C52A, U53G, A54U
# B28: target 1 MT 5'PFS AUA 3'PFS UUC (mixed)
# RNA 1: B1 RNA 1
# RNA 2: B1 RNA 2 with A28U, C29A, C52U, A54C
# B29: target 1 MT 5'PFS UGU 3'PFS ACA (mixed)
# RNA 1: B1 RNA 1
# RNA 2: B1 RNA 2 with A27U, A28G, C29U, C52A, U53C
# B30: target 1 MT 5'PFS GGC 3'PFS ACU (mixed)
# RNA 1: B1 RNA 1
# RNA 2: B1 RNA 2 with A27G, A28G, C52A, U53C, A54U
# B31: target 1 U3C,C6U (mixed)
# RNA 1: B1 RNA 1
# RNA 2: B1 RNA 2 with A27G, A28U, C29A, C46U, U49C, U53C, A54G
# B32: target 1 MT 5'PFS UCC 3'PFS CAA (mixed)
# RNA 1: B1 RNA 1
# RNA 2: B1 RNA 2 with A27U, A28C, U53A
# B33: target 1 MT 5'PFS UGU 3'PFS ACU (mixed)
# RNA 1: B1 RNA 1
# RNA 2: B1 RNA 2 with A27U, A28G, C29U, C52A, U53C, A54U
# B34: target 1 MT 5'PFS GGG 3'PFS AGA (mixed)
# RNA 1: B1 RNA 1
# RNA 2: B1 RNA 2 with A27G, A28G, C29G, C52A, U53G
# B35: target 1 MT 5'PFS UCC 3'PFS CAG (mixed)
# RNA 1: B1 RNA 1
# RNA 2: B1 RNA 2 with A27U, A28C, U53A, A54G
# B36: target 1 MT 5'PFS GAA 3'PFS AGU (mixed)
# RNA 1: B1 RNA 1
# RNA 2: B1 RNA 2 with A27G, C29A, C52A, U53G, A54U
# B37: target 1 MT 5'PFS GGA 3'PFS UUC (mixed)
# RNA 1: B1 RNA 1
# RNA 2: B1 RNA 2 with A27G, A28G, C29A, C52U, A54C
# B38: target 1 MT 5'PFS GCC 3'PFS UCA (mixed)
# RNA 1: B1 RNA 1
# RNA 2: B1 RNA 2 with A27G, A28C, C52U, U53C
# B39: target 1 MT 5'PFS UGU 3'PFS ACG (mixed)
# RNA 1: B1 RNA 1
# RNA 2: B1 RNA 2 with A27U, A28G, C29U, C52A, U53C, A54G
# B40: target 1 MT 5'PFS UCG 3'PFS CUU (mixed)
# RNA 1: B1 RNA 1
# RNA 2: B1 RNA 2 with A27U, A28C, C29G, A54U
# Molecular target: T1, EsCas13d, nuclease-dead
# Assay: crRNA (strand 1, pre-loaded); Mg2+; 40 mM Tris-HCl pH 7.5, 150 mM NaCl, 6 mM MgCl2, 1 mM DTT, 0.1% Tween-20, 0.2 mg/ml BSA; 25 C; 10 min per concentration, then washed
# Settings: tags: His6-TwinStrep-SUMO cleaved; N-terminal SNAP kept (SNAP-Surface 488); label: 3' end held by stalled T7 RNA polymerase
row,Binder,Kd
1,B1,39 ± 19.5 nM
2,B2,11.2 ± 4.95 nM
3,B3,12.6 ± 4.75 nM
4,B4,50.5 ± 8.5 nM
5,B5,32 ± 10.5 nM
6,B6,~115 nM
7,B7,32 ± 7 nM
8,B8,42 ± 9 nM
9,B9,13.4 ± 4.15 nM
10,B10,~31 nM
11,B11,10.8 ± 2.45 nM
12,B12,18 ± 6 nM
13,B13,42 ± 17 nM
14,B14,13 ± 5.5 nM
15,B15,14.2 ± 3.1 nM
16,B16,20.5 ± 4.5 nM
17,B17,7.15 ± 3.05 nM
18,B18,12.2 ± 2.85 nM
19,B19,8.9 ± 0.8 nM
20,B20,15.3 ± 4.85 nM

row,Binder,Kd
1,B21,~49 nM
2,B22,95 ± 40 nM
3,B23,7.9 ± 0.6 nM
4,B24,34.5 ± 8 nM
5,B25,15.3 ± 3 nM
6,B26,~34.5 nM
7,B27,44.5 ± 18 nM
8,B28,16.5 ± 5.5 nM
9,B29,71 ± 18 nM
10,B30,14.4 ± 1.55 nM
11,B31,14.4 ± 1.9 nM
12,B32,~18 nM
13,B33,34.5 ± 13.5 nM
14,B34,23.9 ± 3.1 nM
15,B35,~60 nM
16,B36,43 ± 11.5 nM
17,B37,13.3 ± 2.5 nM
18,B38,27.5 ± 10 nM
19,B39,~80 nM
20,B40,24.5 ± 6.5 nM
